Holding throughout (settings): both partners purified
The target in assay [1] is T1, HSV-1F gB ectodomain (recombinant glycoprotein B of Herpes simplex virus 1 strain F, aa 30-729) (Herpes simplex virus 1 (strain F), UniProt P06436, biotin (EZ-Link NHS-PEG4-Biotin, gB monomer to biotin 1:3) in the BLI only). In words: BLI. Background: Biolayer interferometry detects binding as a change in optical thickness at a sensor tip.
Assay [2] deals with T1, HSV-1F gB ectodomain (recombinant …). In words: cryo-EM 2D class averages; recombinant HSV-1 gB trimers incubated with a 1:1 molar mixture of HDIT101 and HDIT102 Fabs; 2D classes calculated from micrographs.
Assay [3] deals with T2, HSV-2G gB ectodomain (recombinant glycoprotein B of Herpes simplex virus 2 strain G, aa 22-724) (Herpes simplex virus 2 (strain G), biotin (EZ-Link NHS-PEG4-Biotin, gB monomer to biotin 1:3) in the BLI only).
T2 construct: also called HSV-2 gB; recombinant HSV-2 gB; not shown: double Strep-tag, C-terminal, cleaved
The assay is described as follows: cryo-EM structure.

Assay [4] addresses T1, HSV-1F gB ectodomain (recombinant …). The assay is described as follows: cryo-EM structure.
In assay [5] the target is T2, HSV-2G gB ectodomain (recombinant …). The assay is described as follows: BLI.

Consider four molecules from article PMC11134845, “Development of a highly effective combination monoclonal antibody therapy against Herpes simplex virus” (Journal of Biomedical Science, 2024).

Values joined by “and” are separate entries in the source; they are usually repeats but may differ in a detail not shown here. Equal values may be shown once.

B1: HDIT101 IgG (antibody, V domains shown)
VH: TLKESGPALVKPTQTLTLTCTFSGFSLSTSGMSVGWIRQPPGKALEWLAHIWWNNDKYYKPALKSRLTISKDTSKNQVVLTMTNMDPVDTATYYCARIYYGYRPYAMDYWGQGTLVTVSS
VL: IVMTQTPLSLPVTPGEPASISCRSSQSIVHSNGNTYLEWYLQKPGQSPQLLIYKVSNRFSGVPDRFSGSGSGTDFTLKISRVEAEDVGVYYCFQGSHVPWSFGQGTKLEIK
notes: also called humanized IgG HDIT101; source: GMP-grade, produced by Celonic Germany GmbH (contract manufacturer)
As usually defined, the kon is the second-order rate constant of association. Take B1: the on-rate constant (kon) in assay [1] was determined as 500000 M⁻¹ s⁻¹.

B2: HDIT101 Fab (Fab, V domains shown)
VH: TLKESGPALVKPTQTLTLTCTFSGFSLSTSGMSVGWIRQPPGKALEWLAHIWWNNDKYYKPALKSRLTISKDTSKNQVVLTMTNMDPVDTATYYCARIYYGYRPYAMDYWGQGTLVTVSS
VL: IVMTQTPLSLPVTPGEPASISCRSSQSIVHSNGNTYLEWYLQKPGQSPQLLIYKVSNRFSGVPDRFSGSGSGTDFTLKISRVEAEDVGVYYCFQGSHVPWSFGQGTKLEIK
notes: source: papain digestion of GMP-grade HDIT101 IgG1 (Celonic Germany GmbH), Pierce Fab Preparation Kit
As a reminder, the stoichiometry N is a count of units in the complex or per binding partner. By Kd is commonly meant the constant that tells how readily two partners part at equilibrium. The koff is a measure of how fast the partners let go of each other. Regarding B2, the results for the “stoichiometry N” value in assay [2], in assay [3] and in assay [4] were 1 Fab per gB trimer, 3 Fab per gB trimer and 3 Fab per gB trimer, respectively. Besides, the Kd is 18.1 nM in assay [5] and 7.26 nM in assay [1]. The values for the koff in assay [5] and in assay [1] were 0.00379 s⁻¹ and 0.00313 s⁻¹, respectively. Moreover, the kon turned out to be 212000 M⁻¹ s⁻¹ in assay [5] and 435000 M⁻¹ s⁻¹ in assay [1].

B3: HDIT102 Fab (Fab, V domains shown)
VH: EVQLVQSGAEVKTPGASVRVSCKASGHTFRTFDINWVRQAAGQGLEWMGWMSPNSGNTGYARQFQGRVTMTRNISANTAYMELRGLRFDDTAVYYCARGPGSTGTTGSMDVWGQGTTVTVSS
VL: QAGLTQPPSVSVAPGKTARISCGGNNIGSKSVHWYQQKPGQAPVLVIYYDSDRPSGIPERFSGSNSGNTATLTISRVEAGDEADYYCQVWDSGSVVFGGGTKLTVL
As for B3, the “stoichiometry N” value in assay [2] was 3 Fab per gB trimer and 2 Fab per gB trimer. Further, in assay [5], the Kd was determined as 0.0329 nM, the koff amounted to 2.86e-05 s⁻¹ and the kon worked out at 865000 M⁻¹ s⁻¹. In assay [1], the Kd amounted to 0.0895 nM, the koff is 8.85e-05 s⁻¹ and the kon was found to be 992000 M⁻¹ s⁻¹.

B4: HDIT102 IgG (antibody, V domains shown)
VH: EVQLVQSGAEVKTPGASVRVSCKASGHTFRTFDINWVRQAAGQGLEWMGWMSPNSGNTGYARQFQGRVTMTRNISANTAYMELRGLRFDDTAVYYCARGPGSTGTTGSMDVWGQGTTVTVSS
VL: QAGLTQPPSVSVAPGKTARISCGGNNIGSKSVHWYQQKPGQAPVLVIYYDSDRPSGIPERFSGSNSGNTATLTISRVEAGDEADYYCQVWDSGSVVFGGGTKLTVL
notes: also called fully human IgG HDIT102; source: research grade quality, by contract manufacturer
With B4, in assay [1], the kon came to 700000 M⁻¹ s⁻¹.
